Source: US20250163127A1 (published 2025)

T1: human CD86 (human)
T1 chain: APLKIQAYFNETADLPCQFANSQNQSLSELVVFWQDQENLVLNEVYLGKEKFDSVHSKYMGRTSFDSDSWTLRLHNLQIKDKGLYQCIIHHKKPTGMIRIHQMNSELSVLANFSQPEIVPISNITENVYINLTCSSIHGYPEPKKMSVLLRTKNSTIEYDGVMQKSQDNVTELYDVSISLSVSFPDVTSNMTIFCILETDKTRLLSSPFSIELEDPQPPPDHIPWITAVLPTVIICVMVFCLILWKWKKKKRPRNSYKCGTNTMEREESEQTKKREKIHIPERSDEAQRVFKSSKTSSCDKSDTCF


What was measured:
human CD86 = target: T1, human CD86; test: cell-based or functional assay
PD-1 = PD-1 (human, UniProt Q15116); test: cell-based or functional assay
CD2 = CD2 (Homo sapiens (Human), UniProt P06729); test: flow cytometry, CHO-CD2 cells
human PD-1 = human PD-1 (human, UniProt Q15116); test: flow cytometry, Jurkat/IL-2/PD-1 cells

Binder	100 nM IFN-gamma (pg/mL), SEB assay (human CD86) [pg/mL]	100 nM IFN-gamma (pg/mL), SEB assay (PD-1) [pg/mL]	EC50 (CD2) [nM]	EC50 (human PD-1) [nM]
CTLA-4 3037-Fc (Fc fusion) KAMHVAQPAVVLASSRGIASFVCEYASPWKATEVRVTVLRQADSQVTEVCAATYMMGSELTFPDDSICTGTSSGNQVNLTIRGLRAMDTGLYICKVEQMYPPPYLLGIGNGTQIYVIDPEPCPDSDGSGGGGSEPKSSDKTHTCPPCPAPEAEGAPSVFLFPPKPKDTLMISRTPEVTCVVVDVSHEDPEVKFNWYVDGVEVHNAKTKPREEQYNSTYRVVSVLTVLHQDWLNGKEYKCKVSNKALPAPIEKTISKAKGQPREPQVYTLPPSRDELTKNQVSLTCLVKGFYPSDIAVEWESNGQPENNYKTTPPVLDSDGSFFLYSKLTVDKSRWQQGNVFSCSVMHEALHNHYTQKSLSLSPG	807	–	–	–
CTLA4 3037-Fc-PD-L1 303 (SEQ ID NO 3672) (Fc fusion) KAMHVAQPAVVLASSRGIASFVCEYASPWKATEVRVTVLRQADSQVTEVCAATYMMGSELTFPDDSICTGTSSGNQVNLTIRGLRAMDTGLYICKVEQMYPPPYLLGIGNGTQIYVIDPEPCPDSDGSGGGGSEPKSSDKTHTCPPCPAPEAEGAPSVFLFPPKPKDTLMISRTPEVTCVVVDVSHEDPEVKFNWYVDGVEVHNAKTKPREEQYNSTYRVVSVLTVLHQDWLNGKEYKCKVSNKALPAPIEKTISKAKGQPREPQVYTLPPSRDELTKNQVSLTCLVKGFYPSDIAVEWESNGQPENNYKTTPPVLDSDGSFFLYSKLTVDKSRWQQGNVFSCSVMHEALHNHYTQKSLSLSPGGGGGSGGGGSGGGGSAFTVTVPKDLYVVEYGSNMTIECKFPVEKQLDLAALIVYWEMEGKDIIQFVHGEEDQKAQHSSYRQRARLLKDQLSLGNAALQITDVKLQDAGVYRCMISYGGGADYKRITVKVNA	2070	2070	–	–
CD58 3650-CD58 3650-PD-L1 303-PD-L1 303 (other) SQQIYGVVYGNVTFHVPSNVPLKEVLWKKQKDKVAELENSEFRAFSSFKNRVYLDTVSGSLTIYNLTSSDEDEYEMESPNITDTMKFFLYVLESGGGGSGGGGSGGGGSSQQIYGVVYGNVTFHVPSNVPLKEVLWKKQKDKVAELENSEFRAFSSFKNRVYLDTVSGSLTIYNLTSSDEDEYEMESPNITDTMKFFLYVLESGGGGSGGGGSGGGGSFTVTVPKDLYVVEYGSNMTIECKFPVEKQLDLAALIVYWEMEGKDIIQFVHGEEDQKAQHSSYRQRARLLKDQLSLGNAALQITDVKLQDAGVYRCMISYGGGADYKRITVKVNAGSGGSGGGGSGGGGSFTVTVPKDLYVVEYGSNMTIECKFPVEKQLDLAALIVYWEMEGKDIIQFVHGEEDQKAQHSSYRQRARLLKDQLSLGNAALQITDVKLQDAGVYRCMISYGGGADYKRITVKVNAGSGGGGSDYKDDDDKHHHHHH	–	–	24.4	19.5
CTLA-4 3037-Fc-PD-L1 303 (SEQ ID NO 3670) (Fc fusion) KAMHVAQPAVVLASSRGIASFVCEYASPWKATEVRVTVLRQADSQVTEVCAATYMMGSELTFPDDSICTGTSSGNQVNLTIRGLRAMDTGLYICKVEQMYPPPYLLGIGNGTQIYVIDPEPCPDSDGSGGGGSEPKSSDKTHTCPPCPAPEAEGAPSVFLFPPKPKDTLMISRTPEVTCVVVDVSHEDPEVKFNWYVDGVEVHNAKTKPREEQYNSTYRVVSVLTVLHQDWLNGKEYKCKVSNKALPAPIEKTISKAKGQPREPQVYTLPPSRDELTKNQVSLTCLVKGFYPSDIAVEWESNGQPENNYKTTPPVLDSDGSFFLYSKLTVDKSRWQQGNVFSCSVMHEALHNHYTQKSLSLSPGGGGGSGGGGSGGGGSFTVTVPKDLYVVEYGSNMTIECKFPVEKQLDLAALIVYWEMEGKDIIQFVHGEEDQKAQHSSYRQRARLLKDQLSLGNAALQITDVKLQDAGVYRCMISYGGGADYKRITVKVNA	1570	1570	–	–
CD58 3650-PD-L1 303-Fc (Fc fusion) SQQIYGVVYGNVTFHVPSNVPLKEVLWKKQKDKVAELENSEFRAFSSFKNRVYLDTVSGSLTIYNLTSSDEDEYEMESPNITDTMKFFLYVLESGGGGSGGGGSGGGGSFTVTVPKDLYVVEYGSNMTIECKFPVEKQLDLAALIVYWEMEGKDIIQFVHGEEDQKAQHSSYRQRARLLKDQLSLGNAALQITDVKLQDAGVYRCMISYGGGADYKRITVKVNAGSGGGGSEPKSSDKTHTCPPCPAPEAEGAPSVFLFPPKPKDTLMISRTPEVTCVVVDVSHEDPEVKFNWYVDGVEVHNAKTKPREEQYNSTYRVVSVLTVLHQDWLNGKEYKCKVSNKALPAPIEKTISKAKGQPREPQVYTLPPSRDELTKNQVSLTCLVKGFYPSDIAVEWESNGQPENNYKTTPPVLDSDGSFFLYSKLTVDKSRWQQGNVFSCSVMHEALHNHYTQKSLSLSPG	–	–	2	4.6

Results, then the binder that gave them:

100 nM IFN-gamma (pg/mL), SEB assay (human CD86) [pg/mL]	100 nM IFN-gamma (pg/mL), SEB assay (PD-1) [pg/mL]	EC50 (CD2) [nM]	EC50 (human PD-1) [nM]	Binder
2050	2050	–	–	CTLA-4 3037-PD-L1 303-Fc (SEQ ID NO 3666) (Fc fusion) KAMHVAQPAVVLASSRGIASFVCEYASPWKATEVRVTVLRQADSQVTEVCAATYMMGSELTFPDDSICTGTSSGNQVNLTIRGLRAMDTGLYICKVEQMYPPPYLLGIGNGTQIYVIDPEPCPDSDGSGGSGGGGSGGGGSFTVTVPKDLYVVEYGSNMTIECKFPVEKQLDLAALIVYWEMEGKDIIQFVHGEEDQKAQHSSYRQRARLLKDQLSLGNAALQITDVKLQDAGVYRCMISYGGGADYKRITVKVNAGGGGSGSGGGGSEPKSSDKTHTCPPCPAPEAEGAPSVFLFPPKPKDTLMISRTPEVTCVVVDVSHEDPEVKFNWYVDGVEVHNAKTKPREEQYNSTYRVVSVLTVLHQDWLNGKEYKCKVSNKALPAPIEKTISKAKGQPREPQVYTLPPSRDELTKNQVSLTCLVKGFYPSDIAVEWESNGQPENNYKTTPPVLDSDGSFFLYSKLTVDKSRWQQGNVFSCSVMHEALHNHYTQKSLSLSPG
3790	3790	–	–	CTLA-4 3060-PD-L1 303-Fc (Fc fusion) KAMHVAQPAVVFASSHGIASFVCEYASPWKATEVRVTVLRQADSQVTEVCAATYMTGNELTFLDDSICTGTSSGNQVNLTIQGLRAMDTGLYICKVEQMYPPPYLLGIGNGTQIYVIDPEPCPDSDGSGGSGGGGSGGGGSFTVTVPKDLYVVEYGSNMTIECKFPVEKQLDLAALIVYWEMEGKDIIQFVHGEEDQKAQHSSYRQRARLLKDQLSLGNAALQITDVKLQDAGVYRCMISYGGGADYKRITVKVNAGGGGSGSGGGGSEPKSSDKTHTCPPCPAPEAEGAPSVFLFPPKPKDTLMISRTPEVTCVVVDVSHEDPEVKFNWYVDGVEVHNAKTKPREEQYNSTYRVVSVLTVLHQDWLNGKEYKCKVSNKALPAPIEKTISKAKGQPREPQVYTLPPSRDELTKNQVSLTCLVKGFYPSDIAVEWESNGQPENNYKTTPPVLDSDGSFFLYSKLTVDKSRWQQGNVFSCSVMHEALHNHYTQKSLSLSPG
–	–	13.7	2	PD-L1 303-PD-L1 303-CD58 3650-CD58 3650 (other) FTVTVPKDLYVVEYGSNMTIECKFPVEKQLDLAALIVYWEMEGKDIIQFVHGEEDQKAQHSSYRQRARLLKDQLSLGNAALQITDVKLQDAGVYRCMISYGGGADYKRITVKVNAGGGGSGGGGSGGGGSFTVTVPKDLYVVEYGSNMTIECKFPVEKQLDLAALIVYWEMEGKDIIQFVHGEEDQKAQHSSYRQRARLLKDQLSLGNAALQITDVKLQDAGVYRCMISYGGGADYKRITVKVNAGGGGSGGGGSGGGGSSQQIYGVVYGNVTFHVPSNVPLKEVLWKKQKDKVAELENSEFRAFSSFKNRVYLDTVSGSLTIYNLTSSDEDEYEMESPNITDTMKFFLYVLESGSGGSGGGGSGGGGSSQQIYGVVYGNVTFHVPSNVPLKEVLWKKQKDKVAELENSEFRAFSSFKNRVYLDTVSGSLTIYNLTSSDEDEYEMESPNITDTMKFFLYVLESGSGGGGSDYKDDDDKHHHHHH
–	–	0.661	1.2	PD-L1 303-CD58 3650-Fc (Fc fusion) FTVTVPKDLYVVEYGSNMTIECKFPVEKQLDLAALIVYWEMEGKDIIQFVHGEEDQKAQHSSYRQRARLLKDQLSLGNAALQITDVKLQDAGVYRCMISYGGGADYKRITVKVNAGGGGSGGGGSGGGGSSQQIYGVVYGNVTFHVPSNVPLKEVLWKKQKDKVAELENSEFRAFSSFKNRVYLDTVSGSLTIYNLTSSDEDEYEMESPNITDTMKFFLYVLESGSGGGGSEPKSSDKTHTCPPCPAPEAEGAPSVFLFPPKPKDTLMISRTPEVTCVVVDVSHEDPEVKFNWYVDGVEVHNAKTKPREEQYNSTYRVVSVLTVLHQDWLNGKEYKCKVSNKALPAPIEKTISKAKGQPREPQVYTLPPSRDELTKNQVSLTCLVKGFYPSDIAVEWESNGQPENNYKTTPPVLDSDGSFFLYSKLTVDKSRWQQGNVFSCSVMHEALHNHYTQKSLSLSPG
6100	6100	–	–	PD-L1 303-CTLA-4 3037-Fc (SEQ ID NO 3668) (Fc fusion) FTVTVPKDLYVVEYGSNMTIECKFPVEKQLDLAALIVYWEMEGKDIIQFVHGEEDQKAQHSSYRQRARLLKDQLSLGNAALQITDVKLQDAGVYRCMISYGGGADYKRITVKVNAGSGGSGGGGSGGGGSKAMHVAQPAVVLASSRGIASFVCEYASPWKATEVRVTVLRQADSQVTEVCAATYMMGSELTFPDDSICTGTSSGNQVNLTIRGLRAMDTGLYICKVEQMYPPPYLLGIGNGTQIYVIDPEPCPDSDGGGGSGSGGGGSEPKSSDKTHTCPPCPAPEAEGAPSVFLFPPKPKDTLMISRTPEVTCVVVDVSHEDPEVKFNWYVDGVEVHNAKTKPREEQYNSTYRVVSVLTVLHQDWLNGKEYKCKVSNKALPAPIEKTISKAKGQPREPQVYTLPPSRDELTKNQVSLTCLVKGFYPSDIAVEWESNGQPENNYKTTPPVLDSDGSFFLYSKLTVDKSRWQQGNVFSCSVMHEALHNHYTQKSLSLSPG
4470	4470	–	–	PD-L1 303-CTLA4 3060-Fc (Fc fusion) FTVTVPKDLYVVEYGSNMTIECKFPVEKQLDLAALIVYWEMEGKDIIQFVHGEEDQKAQHSSYRQRARLLKDQLSLGNAALQITDVKLQDAGVYRCMISYGGGADYKRITVKVNAGSGGSGGGGSGGGGSKAMHVAQPAVVFASSHGIASFVCEYASPWKATEVRVTVLRQADSQVTEVCAATYMTGNELTFLDDSICTGTSSGNQVNLTIQGLRAMDTGLYICKVEQMYPPPYLLGIGNGTQIYVIDPEPCPDSDGGGGSGSGGGGSEPKSSDKTHTCPPCPAPEAEGAPSVFLFPPKPKDTLMISRTPEVTCVVVDVSHEDPEVKFNWYVDGVEVHNAKTKPREEQYNSTYRVVSVLTVLHQDWLNGKEYKCKVSNKALPAPIEKTISKAKGQPREPQVYTLPPSRDELTKNQVSLTCLVKGFYPSDIAVEWESNGQPENNYKTTPPVLDSDGSFFLYSKLTVDKSRWQQGNVFSCSVMHEALHNHYTQKSLSLSPG
